Data as given in patent WO2017175058A1 (dated 2017).
Changes are numbered by the printed parent chain.

T1: human VISTA on the surface of cells (human, UniProt Q9H7M9 33-295)
T1 sequence: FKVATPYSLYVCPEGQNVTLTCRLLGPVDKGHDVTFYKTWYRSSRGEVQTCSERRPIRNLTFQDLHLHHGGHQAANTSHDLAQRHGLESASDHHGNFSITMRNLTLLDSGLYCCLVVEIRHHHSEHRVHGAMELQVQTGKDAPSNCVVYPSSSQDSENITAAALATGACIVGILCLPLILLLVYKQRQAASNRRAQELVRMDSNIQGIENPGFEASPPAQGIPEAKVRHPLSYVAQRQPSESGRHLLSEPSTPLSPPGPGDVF

B1: VSTB116 (antibody, V domains shown)
VH: QVQLVQSGAEVKKPGSSVKVSCKASGGTFSSYAISWVRQAPGQGLEWMGGIIPIFGTANYAQKFQGRVTITADESTSTAYMELSSLRSEDTAVYYCARSSYGWSYEFDYWGQGTLVTVSS
VL: DIQMTQSPSSLSASVGDRVTITCRASQSINTNLNWYQQKPGKAPKLLIYAASSLQSGVPSRFSGSGSGTDFTLTISSLQPEDFATYYCQQARDTPITFGQGTKVEIKR
B2: VSTB50 (antibody, human IgG1, V domains shown)
VH: QVQLVQSGSELKKPGASVKVSCKASGYTFTNYGLNWVRQAPGQGLEWMGWINPYTGEPTYADDFKGRFVFSLDTSVSTAYLQICSLKAEDTAVYYCAREGYGNYIFPYWGQGTLVTVSS
VL: DIVMTQTPLSLSVTPGQPASISCRASESVDTYANSLMHWYLQKPGQPPQLLIYRASNLESGVPDRFSGSGSGTDFTLKISRVEAEDVGVYYCQQTNEDPRTFGQGTKLEIK
B3: VSTB53 (antibody, human IgG1, V domains shown)
VH: QVQLVQSGAEVKKPGASVKVSCKASGYTFTHYTIHWVRQAPGQGLEWMGYIIPSSGYSEYNQKFKDRVTMTRDTSTSTVYMELSSLRSEDTAVYYCARGAYDDYYDYYAMDYWGQGTLVTVSS
VL: DIVMTQSPLSLPVTPGEPASISCRSSQTIVHSNGNTYLEWYLQKPGQSPQLLIYKVSNRFSGVPDRFSGSGSGTDFTLKISRVEAEDVGVYYCFQASHVPWTFGQGTKLEIK
B4: VSTB95 (antibody, human IgG1, V domains shown)
VH: EVQLVESGGGLVQPGGSLRLSCAASGFTFRNYGMSWVRQAPGKGLEWVASIISGGSYTYYPDSVKGRFTISRDNAKNSLYLQMNSLRAEDTAVYYCARIYDHDGDYYAMDYWGQGTTVTVSS
VL: B3 VL with T28S, A96G

What follows are binders tested against T1, human VISTA on the surface of cells (assay: cell-based or functional assay).

IC50, CPM (proliferation), SEB assay	IC50, Gamma (IFN-g), SEB assay	Binder
-1.44 log10 of antibody concentration	-0.35 log10 of antibody concentration	B1
-0.74 log10 of antibody concentration	1.69 log10 of antibody concentration	B2
-1.06 log10 of antibody concentration	-1.05 log10 of antibody concentration	B3
-1.12 log10 of antibody concentration	0.05 log10 of antibody concentration	B4
